# Assay results: patent US20240216513A1, “FATTY ACID-BIFUNCTIONAL DEGRADER CONJUGATES AND THEIR METHODS OF USE” (Novartis AG, priority 2021, published 2024)
# Assays:
# [1] = BTK FAC plasma stability assay, rat plasma; assay type: in vitro ADME; details: for half-life at 5 µM / Plasma stability (h) rat: incubation to 24 h
# Procedure: (§1) Plasma stability was conducted in Dulbecco's PBS buffer, mouse plasma, rat plasma or human plasma frozen with K3-EDTA from BiolVT). Thawed plasma was centrifuged prior to warming for 5 minutes at 37° C. Working solutions were prepared from 10 mM DMSO solution to 500 µM in acetonitrile:water (1:1); 2 µL of working solution was added to 198 µL blank plasma or PBS and mixed manually. 4×45 µL of spiked matrix was aliquoted into glass incubation plates (96-well DW glass microplate) and sealed with blue silicon/PTFE seal; then incubated on a Thermo shaker (38° C. 300 RPM). Samples were prepared at 0, 2, 6 and 24 h timepoints, by protein precipitation with chilled acetonitrile containing internal standard Glyburide (0.2 µM). Precipitated samples were shaken for 10 minutes and stored at 4° C. until completion of the study. Following precipitation of the terminal sample, samples were frozen at −80° C. for 1 hour. Samples were then thawed prior to centrifugation (20 minutes, 4500 RPM at 4° C.). 50 µL of supernatant of each sample was transferred to 384 well analysis plate containing 30 µL of water. Semi quantitative analysis (analyte: internal standard peak area ratio) was performed by LC-MS/MS using a Sciex QTrap 5500.
# [2] = BTK FAC plasma stability assay, dog plasma; assay type: in vitro ADME; details: for half-life at 5 µM: read-out: Plasma stability (h) dog (converted)
# [3] = BTK FAC plasma stability assay, mouse plasma; assay type: in vitro ADME; details: for half-life at 5 µM / Plasma stability (h) mouse: incubation to 24 h
# Procedure: as §1
# [4] = BTK FAC plasma stability assay, PBS buffer arm; assay type: physicochemical; details: for Plasma stability (h) PBS: incubation to 24 h
# Procedure: as §1
SMILES,% Release of degrader after 24 h rat [1],half-life at 5 µM [1],% Release of degrader after 24 h dog [2],half-life at 5 µM [2],% Release of degrader after 24 h mouse [3],half-life at 5 µM [3],% Release of degrader after 24 h PBS [4],Plasma stability (h) PBS [4],Plasma stability (h) mouse [3],Plasma stability (h) rat [1],Plasma stability (h) dog [2]
"CCCCCCCCCCCN(C(=O)CCCCCCCCCC(=O)O)[C@@H](CCC(=O)N(CCNC(=O)CCOCCOCCOCCOCCOCCOCCOCCOCCOCCOCCOCCOC)CC(=O)OC(C)(C)c1ccc(C(=O)Nc2cc(F)cc(-c3ncnc4[nH]c(-c5ccc(CCN6CCC7(CC6)CCN(C(=O)c6ccc(OC)c(N8CCC(=O)NC8=O)c6)CC7)cc5)cc34)c2C)c(F)c1)C(=O)O [Example A37, (S)-46-Carboxy-42-(2-((2-(4-((3-(6-(4-(2-(9-(3-(2,4-dioxotetrahydropyrimidin-1(2H)-yl)-4-methoxybenzoyl)-3,9-diazaspiro[5.5]undecan-3-yl)ethyl)phenyl)-7H-pyrrolo[2,3-d]pyrimidin-4-yl)-5-fluoro-2-methylphenyl)carbamoyl)-3-fluorophenyl)propan-2-yl)oxy)-2-oxoethyl)-38,43,48-trioxo-47-undecyl-2,5,8,11,14,17,20,23,26,29,32,35-dodecaoxa-39,42,47-triazaoctapentacontan-58-oic acid]",1.5%,> 48 h,2.2%,44.7 h,2.1%,> 48 h,1.7%,>48 h,–,–,–
"CCCCCCCCCCCN(C(=O)CCCCCCCCCC(=O)O)C(CCC(=O)NCCOCCOCCOCCOCCC(=O)NCC(=O)OC(C)(C)c1ccc(C(=O)Nc2cc(F)cc(-c3ncnc4[nH]c(-c5ccc(CCN6CCC7(CC6)CCN(C(=O)c6ccc(OC)c(N8CCC(=O)NC8=O)c6)CC7)cc5)cc34)c2C)c(F)c1)C(=O)O (centres unmarked) [Example A7, 26-Carboxy-2-(4-((3-(6-(4-(2-(9-(3-(2,4-dioxotetrahydropyrimidin-(2H)-yl)-4-methoxybenzoyl)-3,9-diazaspiro[5.5]undecan-3-yl)ethyl)phenyl)-7H-pyrrolo[2,3-d]pyrimidin-4-yl)-5-fluoro-2-methylphenyl)carbamoyl)-3-fluorophenyl)-2-methyl-4,7,23,28-tetraoxo-27-undecyl-3,10,13,16,19-pentaoxa-6,22,27-triazaoctatriacontan-38-oicacid]",–,–,–,–,53.6%,–,1.5%,>48 h,10.1 h,–,–
"CCCCCCCCCCCN(C(=O)CCCCCCCCCC(=O)O)C(CCC(=O)NCCOCCOCCOCCOCCOCCOCCOCCOCCC(=O)NCC(=O)OC(C)(C)c1ccc(C(=O)Nc2cc(F)cc(-c3ncnc4[nH]c(-c5ccc(CCN6CCC7(CC6)CCN(C(=O)c6ccc(OC)c(N8CCC(=O)NC8=O)c6)CC7)cc5)cc34)c2C)c(F)c1)C(=O)O (centres unmarked) [Example A8, 38-Carboxy-2-(4-((3-(6-(4-(2-(9-(3-(2,4-dioxotetrahydropyrimidin-(2H)-yl)-4-methoxybenzoyl)-3,9-diazaspiro[5.5]undecan-3-yl)ethyl)phenyl)-7H-pyrrolo[2,3-d]pyrimidin-4-yl)-5-fluoro-2-methylphenyl)carbamoyl)-3-fluorophenyl)-2-methyl-4,7,35,40-tetraoxo-39-undecyl-3,10,13,16,19,22,25,28,31-nonaoxa-6,34,39-triazapentacontan-50-oic acid]",18.1%,–,13.1%,–,20.1%,–,2.8%,>48 h,>48 h,>48 h,>48 h
"CCCCCCCCCCCN(C(=O)CCCCCCCCCC(=O)O)C(CCC(=O)NCCOCCOCCOCCOCCC(=O)NCC(=O)O[C@H]1CN(C(=O)Nc2cc(F)cc(-c3ncnc4[nH]c(-c5ccc(CCN6CCC7(CC6)CCN(C(=O)c6ccc(OC)c(N8CCC(=O)NC8=O)c6)CC7)cc5)cc34)c2C)C[C@@H]1CC(C)C)C(=O)O (stereo partly drawn) [Example A30, 23-Carboxy-1-(((3R,4S)-1-((3-(6-(4-(2-(9-(3-(2,4-dioxotetrahydropyrimidin-1(2H)-yl)-4-methoxybenzoyl)-3,9-diazaspiro[5.5]undecan-3-yl)ethyl)phenyl)-7H-pyrrolo[2,3-d]pyrimidin-4-yl)-5-fluoro-2-methylphenyl)carbamoyl)-4-isobutylpyrrolidin-3-yl)oxy)-1,4,20,25-tetraoxo-24-undecyl-7,10,13,16-tetraoxa-3,19,24-triazapentatriacontan-35-oic acid]",–,–,–,–,–,–,–,>72 h,<1 h,–,–
"CCCCCCCCCCCN(C(=O)CCCCCCCCCC(=O)O)C(CCC(=O)NCCOCCOCCOCCOCCOCCOCCOCCOCCOCCOCCOCCOCCC(=O)NCCOP(=O)(O)OC(C)(C)c1ccc(C(=O)Nc2cc(F)cc(-c3ncnc4[nH]c(-c5ccc(CCN6CCC7(CC6)CCN(C(=O)c6ccc(OC)c(N8CCC(=O)NC8=O)c6)CC7)cc5)cc34)c2C)c(F)c1)C(=O)O (centres unmarked) [Example A39, 47-Carboxy-1-((((2-(4-((3-(6-(4-(2-(9-(3-(2,4-dioxotetrahydropyrimidin-1(2H)-yl)-4-methoxybenzoyl)-3,9-diazaspiro[5.5]undecan-3-yl)ethyl)phenyl)-7H-pyrrolo[2,3-d]pyrimidin-4-yl)-5-fluoro-2-methylphenyl)carbamoyl)-3-fluorophenyl)propan-2-yl)oxy)(hydroxy)phosphoryl)oxy)-4,44,49-trioxo-48-undecyl-7,10,13,16,19,22,25,28,31,34,37,40-dodecaoxa-3,43,48-triazanonapentacontan-59-oic acid]",0%,–,0%,–,0%,–,0%,>48 h,>48 h,>48 h,39.0 h
"CCCCCCCCCCCN(C(=O)CCCCCCCCCC(=O)O)C(CCC(=O)NCCOCCOCCOCCOCCOCCOCCOCCOCCOCCOCCOCCOCCC(=O)NCC(=O)NCn1c(-c2ccc(CCN3CCC4(CC3)CCN(C(=O)c3ccc(OC)c(N5CCC(=O)NC5=O)c3)CC4)cc2)cc2c(-c3cc(F)cc(NC(=O)c4ccc(C(C)(C)O)cc4F)c3C)ncnc21)C(=O)O (centres unmarked) [Example A38, 49-Carboxy-1-(6-(4-(2-(9-(3-(2,4-dioxotetrahydropyrimidin-1(2H)-yl)-4-methoxybenzoyl)-3,9-diazaspiro[5.5]undecan-3-yl)ethyl)phenyl)-4-(5-fluoro-3-(2-fluoro-4-(2-hydroxypropan-2-yl)benzamido)-2-methylphenyl)-7H-pyrrolo[2,3-d]pyrimidin-7-yl)-3,6,46,51-tetraoxo-50-undecyl-9,12,15,18,21,24,27,30,33,36,39,42-dodecaoxa-2,5,45,50-tetraazahenhexacontan-61-oic acid]",0.1%,–,0.1%,–,0.1%,–,0.2%,>48 h,>48 h,>48 h,>48 h
"CCCCCCCCCCCN(C(=O)CCCCCCCCCC(=O)O)[C@@H](CCC(=O)NCC(=O)O[C@H]1CN(C(=O)Nc2cc(F)cc(-c3ncnc4[nH]c(-c5ccc(CCN6CCC7(CC6)CCN(C(=O)c6ccc(OC)c(N8CCC(=O)NC8=O)c6)CC7)cc5)cc34)c2C)C[C@@H]1CC(C)C)C(=O)O [Example A31, 11-(((S)-1-Carboxy-4-((2-(((3R,4S)-1-((3-(6-(4-(2-(9-(3-(2,4-dioxotetrahydropyrimidin-1(2H)-yl)-4-methoxybenzoyl)-3,9-diazaspiro[5.5]undecan-3-yl)ethyl)phenyl)-7H-pyrrolo[2,3-d]pyrimidin-4-yl)-5-fluoro-2-methylphenyl)carbamoyl)-4-isobutylpyrrolidin-3-yl)oxy)-2-oxoethyl)amino)-4-oxobutyl)(undecyl)amino)-11-oxoundecanoic acid]",–,1.2 h,–,33.6 h,–,< 1 h,–,>72 h,–,–,–
"CCCCCCCCCCCN(C(=O)CCCCCCCCCC(=O)O)C(CCC(=O)NCCOCCOCCOCCOCCOCCOCCOCCOCCOCCOCCOCCOCCC(=O)N1CCC(F)(C(=O)OC(C)(C)c2ccc(C(=O)Nc3cc(F)cc(-c4ncnc5[nH]c(-c6ccc(CCN7CCC8(CC7)CCN(C(=O)c7ccc(OC)c(N9CCC(=O)NC9=O)c7)CC8)cc6)cc45)c3C)c(F)c2)CC1)C(=O)O (centres unmarked) [Example A15, 44-Carboxy-1-(4-(((2-(4-((3-(6-(4-(2-(9-(3-(2,4-dioxotetrahydropyrimidin-1(2H)-yl)-4-methoxybenzoyl)-3,9-diazaspiro[5.5]undecan-3-yl)ethyl)phenyl)-7H-pyrrolo[2,3-d]pyrimidin-4-yl)-5-fluoro-2-methylphenyl)carbamoyl)-3-fluorophenyl)propan-2-yl)oxy)carbonyl)-4-fluoropiperidin-1-yl)-1,41,46-trioxo-45-undecyl-4,7,10,13,16,19,22,25,28,31,34,37-dodecaoxa-40,45-diazahexapentacontan-56-oic acid]",39.4%,–,22.5%,–,96.9%,–,0%,>48 h,<2 h,30 h,23 h
